In patent publication US10919943B2, “Mutant proteins enabling agrochemical control of plant gene expression” (The Regents of the University of California, priority 2016, dated 2021):

Tested on: HAB1
Assay: Yeast two hybrid of pBD-PYR1 site saturation mutants with pACT-HAB1 on 10 μM ABA, β-galactosidase staining
Assay type: cell-based, Arabidopsis
Design: key: x: Mutations in PYR1 that disrupt ABA-induced binding to PYR1 to HAB1
Conditions: S. cerevisiae Y190, 10 μM ABA; dead = lack of visible staining in comparison to wild type control
Summary of the method: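 S. cerevisiae Y190 co-expressing GAL4-DNA-binding-domain–PYR1 mutants and GAL4-activation-domain–HAB1 were spotted on SD (-Leu, -Trp) agar with 10 μM (+)-ABA for 2 days at 30° C. Colonies were chloroform-lysed and stained for β-galactosidase. Mutants lacking visible staining relative to wild type were scored as non-binding.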

B1: H115Y: PYR1 mutant (protein, UniProt O49686 1-191, looked up, variant H115Y)
Abscisic acid receptor PYR1: MPSELTPEERSELKNSIAEFHTYQLDPGSCSSLHAQRIHAPPELVWSIVRRFDKPQTYKHFIKSCSVEQNFEMRVGCTRDVIVISGLPANTSTERLDILDDERRVTGFSIIGGEYRLTNYKSVTTVHRFEKENRIWTVVLESYVVDMPEGNSEDDTRMFADTVVKLNLQKLATVAEAMARNSGDGSGSQVT
**Q.** Which “Mutations in PYR1 that disrupt ABA-induced binding to PYR1 to HAB1” value (shortened to “Mutations”) does the source give for B1 here?
**A.** x

B2: R116W: PYR1 mutant (protein, UniProt O49686 1-191, looked up, variant R116W)
Abscisic acid receptor PYR1: MPSELTPEERSELKNSIAEFHTYQLDPGSCSSLHAQRIHAPPELVWSIVRRFDKPQTYKHFIKSCSVEQNFEMRVGCTRDVIVISGLPANTSTERLDILDDERRVTGFSIIGGEHWLTNYKSVTTVHRFEKENRIWTVVLESYVVDMPEGNSEDDTRMFADTVVKLNLQKLATVAEAMARNSGDGSGSQVT
**Q.** B2 was tested. Which “Mutations” value did it give?
**A.** x

B3: R116A: PYR1 mutant (protein, UniProt O49686 1-191, looked up, variant R116A)
Abscisic acid receptor PYR1: MPSELTPEERSELKNSIAEFHTYQLDPGSCSSLHAQRIHAPPELVWSIVRRFDKPQTYKHFIKSCSVEQNFEMRVGCTRDVIVISGLPANTSTERLDILDDERRVTGFSIIGGEHALTNYKSVTTVHRFEKENRIWTVVLESYVVDMPEGNSEDDTRMFADTVVKLNLQKLATVAEAMARNSGDGSGSQVT
**Q.** B3 was tested. Which “Mutations” value did it give?
**A.** x

B4: H115F: PYR1 mutant (protein, UniProt O49686 1-191, looked up, variant H115F)
Abscisic acid receptor PYR1: MPSELTPEERSELKNSIAEFHTYQLDPGSCSSLHAQRIHAPPELVWSIVRRFDKPQTYKHFIKSCSVEQNFEMRVGCTRDVIVISGLPANTSTERLDILDDERRVTGFSIIGGEFRLTNYKSVTTVHRFEKENRIWTVVLESYVVDMPEGNSEDDTRMFADTVVKLNLQKLATVAEAMARNSGDGSGSQVT
**Q.** Which “Mutations” value does the source give for B4 here?
**A.** x

B5: R116S: PYR1 mutant (protein, UniProt O49686 1-191, looked up, variant R116S)
Abscisic acid receptor PYR1: MPSELTPEERSELKNSIAEFHTYQLDPGSCSSLHAQRIHAPPELVWSIVRRFDKPQTYKHFIKSCSVEQNFEMRVGCTRDVIVISGLPANTSTERLDILDDERRVTGFSIIGGEHSLTNYKSVTTVHRFEKENRIWTVVLESYVVDMPEGNSEDDTRMFADTVVKLNLQKLATVAEAMARNSGDGSGSQVT
**Q.** B5 was tested. Which “Mutations” value did it give?
**A.** x

B6: R116C: PYR1 mutant (protein, UniProt O49686 1-191, looked up, variant R116C)
Abscisic acid receptor PYR1: MPSELTPEERSELKNSIAEFHTYQLDPGSCSSLHAQRIHAPPELVWSIVRRFDKPQTYKHFIKSCSVEQNFEMRVGCTRDVIVISGLPANTSTERLDILDDERRVTGFSIIGGEHCLTNYKSVTTVHRFEKENRIWTVVLESYVVDMPEGNSEDDTRMFADTVVKLNLQKLATVAEAMARNSGDGSGSQVT
**Q.** B6 was tested. Which “Mutations” value did it give?
**A.** x

B7: H115I: PYR1 mutant (protein, UniProt O49686 1-191, looked up, variant H115I)
Abscisic acid receptor PYR1: MPSELTPEERSELKNSIAEFHTYQLDPGSCSSLHAQRIHAPPELVWSIVRRFDKPQTYKHFIKSCSVEQNFEMRVGCTRDVIVISGLPANTSTERLDILDDERRVTGFSIIGGEIRLTNYKSVTTVHRFEKENRIWTVVLESYVVDMPEGNSEDDTRMFADTVVKLNLQKLATVAEAMARNSGDGSGSQVT
**Q.** How did the “Mutations” value turn out when B7 was run?
**A.** x

B8: H115K: PYR1 mutant (protein, UniProt O49686 1-191, looked up, variant H115K)
Abscisic acid receptor PYR1: MPSELTPEERSELKNSIAEFHTYQLDPGSCSSLHAQRIHAPPELVWSIVRRFDKPQTYKHFIKSCSVEQNFEMRVGCTRDVIVISGLPANTSTERLDILDDERRVTGFSIIGGEKRLTNYKSVTTVHRFEKENRIWTVVLESYVVDMPEGNSEDDTRMFADTVVKLNLQKLATVAEAMARNSGDGSGSQVT
**Q.** Which “Mutations” value does the source give for B8 here?
**A.** x

B9: H115G: PYR1 mutant (protein, UniProt O49686 1-191, looked up, variant H115G)
Abscisic acid receptor PYR1: MPSELTPEERSELKNSIAEFHTYQLDPGSCSSLHAQRIHAPPELVWSIVRRFDKPQTYKHFIKSCSVEQNFEMRVGCTRDVIVISGLPANTSTERLDILDDERRVTGFSIIGGEGRLTNYKSVTTVHRFEKENRIWTVVLESYVVDMPEGNSEDDTRMFADTVVKLNLQKLATVAEAMARNSGDGSGSQVT
**Q.** B9 was tested. Which “Mutations” value did it give?
**A.** x

B10: R116D: PYR1 mutant (protein, UniProt O49686 1-191, looked up, variant R116D)
Abscisic acid receptor PYR1: MPSELTPEERSELKNSIAEFHTYQLDPGSCSSLHAQRIHAPPELVWSIVRRFDKPQTYKHFIKSCSVEQNFEMRVGCTRDVIVISGLPANTSTERLDILDDERRVTGFSIIGGEHDLTNYKSVTTVHRFEKENRIWTVVLESYVVDMPEGNSEDDTRMFADTVVKLNLQKLATVAEAMARNSGDGSGSQVT
**Q.** How did the “Mutations” value turn out when B10 was run?
**A.** x

B11: R116Y: PYR1 mutant (protein, UniProt O49686 1-191, looked up, variant R116Y)
Abscisic acid receptor PYR1: MPSELTPEERSELKNSIAEFHTYQLDPGSCSSLHAQRIHAPPELVWSIVRRFDKPQTYKHFIKSCSVEQNFEMRVGCTRDVIVISGLPANTSTERLDILDDERRVTGFSIIGGEHYLTNYKSVTTVHRFEKENRIWTVVLESYVVDMPEGNSEDDTRMFADTVVKLNLQKLATVAEAMARNSGDGSGSQVT
**Q.** How did the “Mutations” value turn out when B11 was run?
**A.** x

B12: H115E: PYR1 mutant (protein, UniProt O49686 1-191, looked up, variant H115E)
Abscisic acid receptor PYR1: MPSELTPEERSELKNSIAEFHTYQLDPGSCSSLHAQRIHAPPELVWSIVRRFDKPQTYKHFIKSCSVEQNFEMRVGCTRDVIVISGLPANTSTERLDILDDERRVTGFSIIGGEERLTNYKSVTTVHRFEKENRIWTVVLESYVVDMPEGNSEDDTRMFADTVVKLNLQKLATVAEAMARNSGDGSGSQVT
**Q.** B12 was tested. Which “Mutations” value did it give?
**A.** x

B13: H115D: PYR1 mutant (protein, UniProt O49686 1-191, looked up, variant H115D)
Abscisic acid receptor PYR1: MPSELTPEERSELKNSIAEFHTYQLDPGSCSSLHAQRIHAPPELVWSIVRRFDKPQTYKHFIKSCSVEQNFEMRVGCTRDVIVISGLPANTSTERLDILDDERRVTGFSIIGGEDRLTNYKSVTTVHRFEKENRIWTVVLESYVVDMPEGNSEDDTRMFADTVVKLNLQKLATVAEAMARNSGDGSGSQVT
**Q.** B13 was tested. Which “Mutations” value did it give?
**A.** x

B14: R116T: PYR1 mutant (protein, UniProt O49686 1-191, looked up, variant R116T)
Abscisic acid receptor PYR1: MPSELTPEERSELKNSIAEFHTYQLDPGSCSSLHAQRIHAPPELVWSIVRRFDKPQTYKHFIKSCSVEQNFEMRVGCTRDVIVISGLPANTSTERLDILDDERRVTGFSIIGGEHTLTNYKSVTTVHRFEKENRIWTVVLESYVVDMPEGNSEDDTRMFADTVVKLNLQKLATVAEAMARNSGDGSGSQVT
**Q.** With B14 as the molecule, how does the “Mutations” value read?
**A.** x

B15: R116V: PYR1 mutant (protein, UniProt O49686 1-191, looked up, variant R116V)
Abscisic acid receptor PYR1: MPSELTPEERSELKNSIAEFHTYQLDPGSCSSLHAQRIHAPPELVWSIVRRFDKPQTYKHFIKSCSVEQNFEMRVGCTRDVIVISGLPANTSTERLDILDDERRVTGFSIIGGEHVLTNYKSVTTVHRFEKENRIWTVVLESYVVDMPEGNSEDDTRMFADTVVKLNLQKLATVAEAMARNSGDGSGSQVT
**Q.** How did the “Mutations” value turn out when B15 was run?
**A.** x

B16: R116P: PYR1 mutant (protein, UniProt O49686 1-191, looked up, variant R116P)
Abscisic acid receptor PYR1: MPSELTPEERSELKNSIAEFHTYQLDPGSCSSLHAQRIHAPPELVWSIVRRFDKPQTYKHFIKSCSVEQNFEMRVGCTRDVIVISGLPANTSTERLDILDDERRVTGFSIIGGEHPLTNYKSVTTVHRFEKENRIWTVVLESYVVDMPEGNSEDDTRMFADTVVKLNLQKLATVAEAMARNSGDGSGSQVT
**Q.** Which “Mutations” value does the source give for B16 here?
**A.** x
